We go through two compounds from patent US6040149A, “Assay for identifying agents which act on the ceramide-activated protein kinase, kinase suppressor of ras, and methods of using said agents” (priority 1997, dated 2000).

Data set [1] has as its system ceramide-activated protein kinase. Nature of the data set: CAP kinase activation in HL-60 cells (renaturation and autophosphorylation). Format: cell-based, human (HL-60 cells). Particulars: TPA 100 ng/ml. As for the experimental part:
Stimulation of ceramide-activated protein (CAP) kinase by lipid A. On the day of an experiment, HL-60 cells were resuspended (1×10^6 cells ml^-1) into serum-free RPMI 1640 containing 5 μg ml^-1 insulin and transferrin. After 2 h, cells were stimulated with lipid A (Escherichia Coli) or diluent (DMSO, <0.01%). Ceramide-activated protein kinase contained within microsomal membranes was detected by renaturation and autophosphorylation. Briefly, membrane proteins (200 μg per lane) were separated by SDS-PAGE (10%), and the gel was washed with two changes of buffer (50 mM Tris, pH 7.4, 5 mM 2-mercaptoethanol) containing 20% 2-propanol at room temperature for 1 h, and once in buffer without 2-propanol for 1 h. Denaturation was accomplished by incubation of the gel in two changes of 6M guanidinium HCl in wash buffer for 1 h each. Renaturation was accomplished by incubation of the gel overnight at 4° C. in wash buffer containing 0.04% Tween-20. The gel was then equilibrated for 10 min at room temperature in kinase reaction mixture (25 mM HEPES, pH 7.4, 10 mM MgCl2, 0.5 mM EGTA and 5 mM NaF) and [γ-^32 p] ATP (50 μM final concentration; 1000 dpm pmol^-1) was added. Autophosphorylation was terminated by removal of the reaction mixture. The gel was washed with 6 changes of buffer (5% trichloroacetic acid, 1% sodium pyrophosphate) for 2 h and subjected to autoradiography. Top panel--Time course of lipid A activation. Bottom panel--Dose response at 5 minutes of lipid A stimulation. Autoradiograms represent one of three similar studies in both panels A and B.
On the day of an experiment, cells were resuspended (1×10^6 cells ml^-1) into serum-free RPMI 1640 containing 5 μg ml^-1 insulin and transferrin. After 2 h, cells were stimulated with lipid A or diluent (DMSO, <0.01% ). […] The postnuclear supernate was centrifuged at 200,000×g for 30 min and microsomal membranes were resuspended ([…]) into homogenizing buffer. Ceramide-activated protein kinase was detected by renaturation and autophosphorylation. Briefly, membrane proteins (200 μg per lane) were separated by SDS-PAGE (10%), and the gel was washed with two changes of buffer (50 mM Tris, pH 7.4, 5 mM 2-mercaptoethanol) containing 20% 2-propanol at room temperature for 1 h, and once in buffer without 2-propanol for 1 h. Denaturation was accomplished by incubation of the gel in two changes of 6M guanidinium HCl in wash buffer for 1 h each. Renaturation was accomplished by incubation of the gel overnight at 4° C. in wash buffer containing 0.04% Tween-20. The gel was then equilibrated for 10 min at room temperature in kinase reaction mixture (25 mM HEPES, pH 7.4, 10 mM MgCl2, 0.5 mM EGTA and 5 mM NaF) and [γ-^32 P] ATP (50 μM final concentration; 1000 dpm pmol^-1. Autophosphorylation was terminated by removal of the reaction mixture. The gel was washed with 6 changes of buffer (5% trichloracetic acid, 1% sodium pyrophosphate) for 2 h and subjected to autoradiography.
For studies involving activation of ceramide-activated protein kinase by LPS, HL-60 cells (13×10^6 ml^-1) were handled as above, and LPS (Salmonella typhosa, 50 ng ml^-1), recombinant LBP (1.7 μg ml^-1) or both LPS and LBP were added for the times indicated. Isolation of microsomal membranes and autophosphorylation of ceramide-activated protein kinase were performed as above.

For data set [2] the test system is unchanged. Particulars: ref. [40]; cited from earlier work.
For data set [3] the test system is unchanged. Particulars: treatment of intact cells; literature; cited from earlier work.
Data set [4] shares this test system. The data set is described as follows: EGFR peptide phosphorylation in a cell-free system (HL-60 nuclei-free supernate). Format: biochemical, human (HL-60 cells). The procedure: Effect of TNF-α on ceramide-activated protein kinase activity. HL-60 cells were incubated in serum-free medium and homogenized (as in FIG. 9). […] ATP (750 μM, 4000 dpm pmol^-1), and 75 μl of reaction buffer. […] Phosphorylated peptide was first run on a C18 Sep-Pak cartridge, then resolved by C18 reverse-phase HPLC (Waters, Milford, Mass.), with a linear gradient of acetonitrile. The peptide eluted at 30% acetonitrile, as determined by monitoring Cerenkov radiation in 1-ml fractions. Background activity was subtracted from each point. (A) Kinetics of TNF-α (30 nM)-stimulated EGFR peptide phosphorylation. Values (mean) represent data from four experiments. (B) Concentration dependence of EGFR peptide phosphorylation at 5 minutes of stimulation with TNF-α (0.01 to 30 nM). Values (mean) represent data derived from duplicate points in two experiments. The SEM of the values in (A) was 18% and the mean range of values in (B) was 3%.
Effect of phospholipases on ceramide-activated protein kinase activity. Nuclei-free supernates, prepared as in FIG. 9, were first incubated with TNF-α (3 nM) or added directly to reaction mixtures that contained various phospholipases; sphingomyelinase (SMase) (1×10^-3 U ml^-1, S. aureus), phospholipase A2 (PlA2) (3.8×10^-2 and 3.8×10^-1 U ml^-1, Vipera ruselli), phospholipase C (PLC) (3.8×10^-2 U ml^-1, Bacillus cereus) and phospholipase D (PLD) (3.8×10^-2 U ml^-1, Streptomyces chromocuscus). Peptide phosphorylation was measured as in FIG. 10. Control value represents peptide phosphorylation in the absence of phospholipases or TNF-α. Values (mean±SEM) represent data derived from duplicate samples in three experiments. *P<0.001 compared to control.
The effect of TNF-α on ceramide-activated protein kinase activity was assessed. […] For studies assessing the effect of TNFα in broken cell preparations, nuclei-free supernates were incubated under conditions sufficient for stimulation of neutral sphingomyelinase in a reaction mixture that also contained EGFR peptide and γ-^32 P-labeled ATP. Phosphorylated peptide was resolved by high-performance liquid chromatograph (HPLC) and quantified by Cerenkov counting. Kinase activity was calculated from the specific activity of [γ-^32 P] ATP and incorporation of ^32 P into EGFR peptide. Background activity was subtracted from each point. […] TNF-α stimulation of kinase activity was evident by 1 minute and demonstrable for at least 10 minutes. If the initial incubation with TNF-α at 4° C. was omitted and TNF was added directly to the reaction mixture at 22° C., the reaction was delayed. […] TNF-α enhanced kinase activity in a concentration-dependent manner at 5 minutes (FIG. 10B). […] This is similar to the ED50 of 200 pM for stimulation of ceramide-activated protein kinase by TNF-α in intact cells. TNF-α enhanced kinase activity in a total of 20 separate studies.
Control activity reflects several TNF-α-independent protein kinases that are known to phosphorylate EGFR peptide on Thr^669.

In the case of `CCCCCCCCCCCCCC(=O)O[C@@H]1[C@@H](C)[C@@]2(O)[C@@H](C=C(CO)C[C@]3(O)C(=O)C(C)=C[C@@H]23)[C@@H]2C(C)(C)[C@]12OC(C)=O` [TPA, 12-0-tetradecanoylphorbol-13-acetate], the “activation of CAP kinase” value in data set [1] is on record as “did not activate CAP kinase”.
With TNF-α, in data set [2], the “ED50 for stimulation of ceramide-activated protein kinase in intact cells” value was 0.2 nM. The “enhancement of CAP kinase autophosphorylation / activity” value in data set [3] is recorded as 5-10 fold. In data set [4] (5 minutes), the “concentration of maximal effect (kinase activity)” value turned out to be 3 nM and the “effective concentration (kinase activity)” value was determined as 10 pM. In addition, the “ED50 for kinase activity” value in data set [4] (5 minutes, cell-free) is on record as “≈ 300 pM”. Moreover, in data set [4] (TNF-α 30 nM, P<0.001), the “onset of stimulation of kinase activity” value was ≤ 1 min.
